Data reported in the supplement of paper PMC10065799, “High-throughput profiling of sequence recognition by tyrosine kinases and SH2 domains using bacterial peptide display” (eLife, 2023).
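Wherever SH2 binding enrichment of the phosphorylated peptide, bacterial display is given: peptide library displayed on the E. coli surface as eCPX fusions, selected cells deep-sequenced, score is each peptide's frequency after selection divided by its frequency in the input.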
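Wherever phosphorylation enrichment, bacterial display is given: 11-residue human phosphosite peptides and single-mutation variants displayed on the E. coli surface, counted by deep sequencing, each peptide's frequency after selection divided by its frequency in the unselected input library; frequency after pTyr selection over input frequency; kinase dosed for 20-30% of maximal phosphorylation in three min.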

These sequences were tested on c-Src (assay: phosphorylation enrichment, bacterial display (enrichment ratio); higher = better substrate or ligand; peptides without Tyr show the background).
Work on DISEPYEVFRI [IRF8_Y107_K108E_YF] yielded a phosphorylation enrichment of 4.48.
Sequence VLALWYYYLTH [ZDHHC23_Y127] has a phosphorylation enrichment of 1.24.
Work on KPPPSYESEEE [BRD4_Y599_T598S] yielded a phosphorylation enrichment of 0.591.
In the case of IVKAFYVRARA [AIPL1_Y268_YF], the phosphorylation enrichment is reported as 0.396.
Sequence GYAGKYIAMVM [CYP19A1_Y441_C437Y] has a phosphorylation enrichment of 0.381.
PLGVLYKVKVF [PTS_Y128_V124L_YF] showed a phosphorylation enrichment of 0.311.
Work on QLDQHYLLVPE [DDX49_Y223_R222H] yielded a phosphorylation enrichment of 0.654.
APSHAYHRGVL [ANO1_Y981_G983R] gave a phosphorylation enrichment of 0.426.
WRVIGYHVVVW [ATP13A2_Y50] was tested, and the phosphorylation enrichment was 0.501.
FSIAQYCCRMG [LRRK2_Y2023_G2019S_YF] was tested, and the phosphorylation enrichment was 0.425.
Sequence SLNAVYPKAGS [OAS3_Y376_R378K] has a phosphorylation enrichment of 0.473.
With FLAATYPTVGQ [NF1_Y2508_YF] the phosphorylation enrichment was 0.426.
SGDDGYAKDAK [TENM4_Y1530] showed a phosphorylation enrichment of 0.409.
For TDIVAYSGWVQ [SPTBN2_Y477_R480W], the phosphorylation enrichment was 1.4.
With THPFPYLSLEI [MLH1_Y293_L292P] the phosphorylation enrichment was 0.554.
Sequence METKGYQSLPE [NR3C2_Y6_H7Q] has a phosphorylation enrichment of 0.326.
Sequence QDIMAYRSREV [BCL6_Y157_G159S] has a phosphorylation enrichment of 0.513.
With KPIETYFSKNF [PLP1_Y50_L46P_YF] the phosphorylation enrichment was 0.44.
HYECKYVINAI [MAOA_Y268] gave a phosphorylation enrichment of 0.859.
PLDGEYSTLQI [TP53_Y327_F328S] showed a phosphorylation enrichment of 2.97.
LSVMSYDLGMF [GBA3_Y174] showed a phosphorylation enrichment of 0.75.
ACEVLYNIAFM [NCF2_Y125] was tested, and the phosphorylation enrichment was 2.17.
For LWKWKYEELKE [CCDC102B_Y299], the phosphorylation enrichment was 0.27.
DLDATYRPMFS [JUP_Y701_M697L_YF] showed a phosphorylation enrichment of 0.542.
With HDRNTYEKYLE [TF_Y666_G671E] the phosphorylation enrichment was 0.995.
NPQKSYFICLY [WAS_Y83_R86C] gave a phosphorylation enrichment of 0.415.
LLVVLCKYRCY [PSEN1_Y154_Y154C] gave a phosphorylation enrichment of 0.369.
DISEPYEVYRI [IRF8_Y107_K108E] was tested, and the phosphorylation enrichment was 3.97.
CTTIHYNYMHN [TP53_Y234_C238H] gave a phosphorylation enrichment of 0.349.

Each sequence was assayed against Grb2 SH2 (UniProt P62993) (assay: SH2 binding enrichment of the phosphorylated peptide, bacterial display (enrichment ratio); higher = better substrate or ligand; peptides without Tyr show the background).
Chain of Grb2 SH2 (P62993 whole entry, looked up): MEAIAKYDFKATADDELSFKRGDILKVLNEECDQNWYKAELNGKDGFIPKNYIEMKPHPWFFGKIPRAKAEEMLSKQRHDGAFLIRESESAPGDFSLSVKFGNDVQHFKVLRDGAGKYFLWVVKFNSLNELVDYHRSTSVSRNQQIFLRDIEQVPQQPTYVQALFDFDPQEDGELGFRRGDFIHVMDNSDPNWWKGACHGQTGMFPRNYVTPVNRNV
DISEPYEVFRI [IRF8_Y107_K108E_YF] gave an SH2 binding enrichment of 1.03.
For VLALWYYYLTH [ZDHHC23_Y127], the SH2 binding enrichment was 2.15.
KPPPSYESEEE [BRD4_Y599_T598S] was tested, and the SH2 binding enrichment was 1.04.
With IVKAFYVRARA [AIPL1_Y268_YF] the SH2 binding enrichment was 0.872.
GYAGKYIAMVM [CYP19A1_Y441_C437Y] was tested, and the SH2 binding enrichment was 0.883.
PLGVLYKVKVF [PTS_Y128_V124L_YF] gave an SH2 binding enrichment of 0.88.
QLDQHYLLVPE [DDX49_Y223_R222H] showed an SH2 binding enrichment of 0.815.
APSHAYHRGVL [ANO1_Y981_G983R] was tested, and the SH2 binding enrichment was 0.988.
WRVIGYHVVVW [ATP13A2_Y50] was tested, and the SH2 binding enrichment was 1.08.
With FSIAQYCCRMG [LRRK2_Y2023_G2019S_YF] the SH2 binding enrichment was 1.17.
SLNAVYPKAGS [OAS3_Y376_R378K] gave an SH2 binding enrichment of 0.841.
Work on FLAATYPTVGQ [NF1_Y2508_YF] yielded an SH2 binding enrichment of 0.835.
Work on SGDDGYAKDAK [TENM4_Y1530] yielded an SH2 binding enrichment of 0.733.
In the case of TDIVAYSGWVQ [SPTBN2_Y477_R480W], the SH2 binding enrichment is reported as 0.881.
In the case of THPFPYLSLEI [MLH1_Y293_L292P], the SH2 binding enrichment is reported as 1.04.
METKGYQSLPE [NR3C2_Y6_H7Q] showed an SH2 binding enrichment of 0.728.
QDIMAYRSREV [BCL6_Y157_G159S] was tested, and the SH2 binding enrichment was 0.699.
KPIETYFSKNF [PLP1_Y50_L46P_YF] showed an SH2 binding enrichment of 0.663.
Sequence HYECKYVINAI [MAOA_Y268] has an SH2 binding enrichment of 0.735.
For PLDGEYSTLQI [TP53_Y327_F328S], the SH2 binding enrichment was 0.399.
Work on LSVMSYDLGMF [GBA3_Y174] yielded an SH2 binding enrichment of 0.624.
Work on ACEVLYNIAFM [NCF2_Y125] yielded an SH2 binding enrichment of 0.768.
For LWKWKYEELKE [CCDC102B_Y299], the SH2 binding enrichment was 1.43.
DLDATYRPMFS [JUP_Y701_M697L_YF] showed an SH2 binding enrichment of 0.72.
For HDRNTYEKYLE [TF_Y666_G671E], the SH2 binding enrichment was 0.681.
Sequence NPQKSYFICLY [WAS_Y83_R86C] has an SH2 binding enrichment of 1.11.
For LLVVLCKYRCY [PSEN1_Y154_Y154C], the SH2 binding enrichment was 1.66.
In the case of DISEPYEVYRI [IRF8_Y107_K108E], the SH2 binding enrichment is reported as 0.76.
Work on CTTIHYNYMHN [TP53_Y234_C238H] yielded an SH2 binding enrichment of 0.995.

The sequences below were run against SHP2-C SH2 in the same assay as above.
Sequence DISEPYEVFRI [IRF8_Y107_K108E_YF] has an SH2 binding enrichment of 0.916.
In the case of VLALWYYYLTH [ZDHHC23_Y127], the SH2 binding enrichment is reported as 1.62.
In the case of KPPPSYESEEE [BRD4_Y599_T598S], the SH2 binding enrichment is reported as 0.517.
IVKAFYVRARA [AIPL1_Y268_YF] showed an SH2 binding enrichment of 1.2.
Work on GYAGKYIAMVM [CYP19A1_Y441_C437Y] yielded an SH2 binding enrichment of 0.563.
PLGVLYKVKVF [PTS_Y128_V124L_YF] gave an SH2 binding enrichment of 0.896.
With QLDQHYLLVPE [DDX49_Y223_R222H] the SH2 binding enrichment was 0.436.
APSHAYHRGVL [ANO1_Y981_G983R] was tested, and the SH2 binding enrichment was 0.899.
WRVIGYHVVVW [ATP13A2_Y50] showed an SH2 binding enrichment of 0.915.
In the case of FSIAQYCCRMG [LRRK2_Y2023_G2019S_YF], the SH2 binding enrichment is reported as 0.826.
In the case of SLNAVYPKAGS [OAS3_Y376_R378K], the SH2 binding enrichment is reported as 0.76.
For FLAATYPTVGQ [NF1_Y2508_YF], the SH2 binding enrichment was 0.888.
For SGDDGYAKDAK [TENM4_Y1530], the SH2 binding enrichment was 0.577.
TDIVAYSGWVQ [SPTBN2_Y477_R480W] gave an SH2 binding enrichment of 1.2.
For THPFPYLSLEI [MLH1_Y293_L292P], the SH2 binding enrichment was 0.752.
METKGYQSLPE [NR3C2_Y6_H7Q] showed an SH2 binding enrichment of 0.557.
QDIMAYRSREV [BCL6_Y157_G159S] was tested, and the SH2 binding enrichment was 0.955.
KPIETYFSKNF [PLP1_Y50_L46P_YF] showed an SH2 binding enrichment of 0.568.
HYECKYVINAI [MAOA_Y268] gave an SH2 binding enrichment of 0.634.
PLDGEYSTLQI [TP53_Y327_F328S] showed an SH2 binding enrichment of 0.272.
In the case of LSVMSYDLGMF [GBA3_Y174], the SH2 binding enrichment is reported as 0.887.
In the case of ACEVLYNIAFM [NCF2_Y125], the SH2 binding enrichment is reported as 0.592.
LWKWKYEELKE [CCDC102B_Y299] was tested, and the SH2 binding enrichment was 0.808.
With DLDATYRPMFS [JUP_Y701_M697L_YF] the SH2 binding enrichment was 0.713.
In the case of HDRNTYEKYLE [TF_Y666_G671E], the SH2 binding enrichment is reported as 1.14.
NPQKSYFICLY [WAS_Y83_R86C] was tested, and the SH2 binding enrichment was 0.66.
For LLVVLCKYRCY [PSEN1_Y154_Y154C], the SH2 binding enrichment was 1.99.
DISEPYEVYRI [IRF8_Y107_K108E] showed an SH2 binding enrichment of 0.401.
CTTIHYNYMHN [TP53_Y234_C238H] was tested, and the SH2 binding enrichment was 0.857.

The sequences below were run against c-Src SH2 in the same assay as above.
For DISEPYEVFRI [IRF8_Y107_K108E_YF], the SH2 binding enrichment was 0.663.
VLALWYYYLTH [ZDHHC23_Y127] showed an SH2 binding enrichment of 1.5.
KPPPSYESEEE [BRD4_Y599_T598S] was tested, and the SH2 binding enrichment was 0.762.
With IVKAFYVRARA [AIPL1_Y268_YF] the SH2 binding enrichment was 0.601.
GYAGKYIAMVM [CYP19A1_Y441_C437Y] was tested, and the SH2 binding enrichment was 0.732.
Sequence PLGVLYKVKVF [PTS_Y128_V124L_YF] has an SH2 binding enrichment of 0.494.
In the case of QLDQHYLLVPE [DDX49_Y223_R222H], the SH2 binding enrichment is reported as 0.604.
Work on APSHAYHRGVL [ANO1_Y981_G983R] yielded an SH2 binding enrichment of 0.679.
In the case of WRVIGYHVVVW [ATP13A2_Y50], the SH2 binding enrichment is reported as 0.727.
Work on FSIAQYCCRMG [LRRK2_Y2023_G2019S_YF] yielded an SH2 binding enrichment of 0.981.
SLNAVYPKAGS [OAS3_Y376_R378K] was tested, and the SH2 binding enrichment was 0.456.
For FLAATYPTVGQ [NF1_Y2508_YF], the SH2 binding enrichment was 0.57.
Work on SGDDGYAKDAK [TENM4_Y1530] yielded an SH2 binding enrichment of 0.445.
TDIVAYSGWVQ [SPTBN2_Y477_R480W] was tested, and the SH2 binding enrichment was 0.642.
THPFPYLSLEI [MLH1_Y293_L292P] showed an SH2 binding enrichment of 2.05.
METKGYQSLPE [NR3C2_Y6_H7Q] was tested, and the SH2 binding enrichment was 0.841.
QDIMAYRSREV [BCL6_Y157_G159S] showed an SH2 binding enrichment of 0.42.
With KPIETYFSKNF [PLP1_Y50_L46P_YF] the SH2 binding enrichment was 0.439.
In the case of HYECKYVINAI [MAOA_Y268], the SH2 binding enrichment is reported as 0.59.
Work on PLDGEYSTLQI [TP53_Y327_F328S] yielded an SH2 binding enrichment of 0.433.
In the case of LSVMSYDLGMF [GBA3_Y174], the SH2 binding enrichment is reported as 0.603.
Sequence ACEVLYNIAFM [NCF2_Y125] has an SH2 binding enrichment of 0.434.
Work on LWKWKYEELKE [CCDC102B_Y299] yielded an SH2 binding enrichment of 0.81.
Sequence DLDATYRPMFS [JUP_Y701_M697L_YF] has an SH2 binding enrichment of 0.5.
For HDRNTYEKYLE [TF_Y666_G671E], the SH2 binding enrichment was 1.62.
For NPQKSYFICLY [WAS_Y83_R86C], the SH2 binding enrichment was 0.412.
For LLVVLCKYRCY [PSEN1_Y154_Y154C], the SH2 binding enrichment was 1.33.
In the case of DISEPYEVYRI [IRF8_Y107_K108E], the SH2 binding enrichment is reported as 0.638.
For CTTIHYNYMHN [TP53_Y234_C238H], the SH2 binding enrichment was 1.86.
